{
  "source": "patent US6471960B1",
  "about": "“Methods for the prevention or treatment of alzheimer's disease” (Rutgers, the State University, priority 1994, dated 2002)",
  "key": {"tPA [1]": {"molecular_target": "T1, tPA (Homo sapiens, UniProt P00750)", "T1 sequence (P00750 36-562)": "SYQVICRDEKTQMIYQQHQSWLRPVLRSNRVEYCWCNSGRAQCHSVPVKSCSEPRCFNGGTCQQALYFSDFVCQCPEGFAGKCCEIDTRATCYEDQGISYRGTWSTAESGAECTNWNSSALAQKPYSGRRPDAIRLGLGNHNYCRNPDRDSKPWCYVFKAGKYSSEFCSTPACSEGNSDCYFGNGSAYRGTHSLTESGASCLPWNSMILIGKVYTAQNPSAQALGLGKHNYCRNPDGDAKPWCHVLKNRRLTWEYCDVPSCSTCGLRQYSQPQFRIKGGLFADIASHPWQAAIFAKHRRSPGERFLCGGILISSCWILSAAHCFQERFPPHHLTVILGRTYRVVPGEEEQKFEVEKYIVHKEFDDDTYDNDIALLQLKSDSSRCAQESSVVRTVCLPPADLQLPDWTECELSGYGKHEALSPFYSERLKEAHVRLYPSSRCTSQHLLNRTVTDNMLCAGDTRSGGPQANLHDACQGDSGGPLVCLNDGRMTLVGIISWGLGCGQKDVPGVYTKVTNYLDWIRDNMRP", "experiment": "Binding of active site 125I-labeled tPA to amyloid fibrils or fibrin", "conditions": "for t-PA binding relative to wt β1-28 and fibrin controls: fibrils of Charged→Gln β(1-28) variants; for effect on tPA binding to amyloid fibrils: ε-aminocaproic acid at 0.1 M (100 mM)", "protocol": "In this study, D-Tyr-Pro-Arg-chloromethyl ketone (Bachem Bioscience) was radioiodinated by the chloramine-T method and subsequently used to irreversibly bind to the active site of tPA. (Keyt, et al, Anal. Biochem. 206:73-83 (1992)). 1 mCi of I^125 was mixed with YPRck in 1 M Tris-HCL, 0.01% Tween 20 at pH 7.5. To initiate iodination 10 μl of 1 mg/ml Chloramine-T was added. After 1 minute, 20 μl of 1 mg/ml sodium metabisulfite was added to reduce the Chloramine-T and iodide. 15 μl of 1 mg/ml tPA was then added, and the mixture was incubated at room temperature for 1 hour to allow the YPRck to bind to the tPA. Radiolabeled tPA was purified from free iodine and unreacted YPRck using a PD-10 column preequilibrated with PBS and 0.003% Tween 20. The labeled protein was stored at −20° C.\nSynthetic Amyloid Fibril Formation—β1-28 (Chiron Mimotopes Peptide Systems) and β1-40 (Bachem Bioscience) peptides were dissolved in water. Aggregation solution conditions were 1×PBS, 1 mg/ml β-peptide and the pH was adjusted to the theoretical pI of the peptides (5.6 for β1-28 and 4.9 for β1-40). Solutions were kept at room temperature.\nBinding of Active Site-labeled tPA to Amyloid Fibrils or to Fibrin—tPA binding was determined by a modification of the method of Higgins and Vehar, Biochem. 26:7786-7791 (1987)).\nTo confirm that the labeled tPA's protein binding surface was not altered by the radioiodination, it was bound to fibrin by substituting fibrinogen for the fibrils. Fibrin clot formation was initiated by adding 0.4 units/ml (final human thrombin. The remainder of the assay proceeded as above.\nIhibition of kringle-dependent labeled tPA Binding to Amyloid Fibrils and Fibrin Using ε-aminocaproic acid to the binding solutions were set up on the same manner as previously noted except that ε-aminocaproic acid at 0.1 M was included in the conditions.\nPrevious studies of the interaction of human tissue plasminogen activator with the amyloid β peptide employed a functional plasminogen activation assay (Kingston, I. B. et al., Nature Medicine 1:138-142 (1995); Castro, M. J. M., et al., Analyt. Biochem. 226:225-231 (1995)). However, to understand this interaction more fully, a sensitive and quantitative assay for measuring direct amyloid β peptide binding by t-PA and other fibrin(ogen)-binding proteins (e. g., plasmin) was employed in the present invention. For this purposed a specific probe molecule, D-Tyr-Pro-Arg chloromethyl ketone (YPACK), was radioiodinated with ^125I then reacted with t-PA, plasmin, and thrombin to effect covalent active site modification of their respective protease domains (Keyt, B. A. et al., Analyt. Biochem. 206:73-83 (1992)). Binding of ^125I-YPACK-modified t-PA to fibrin and amyloid β peptide fibrils was carried out by a modification of the method of Higgins, D. L. et al. (Fibrinolysis 6:161-166 (1992)). Incubations of t-PA (0.5 nM) with fibrin or fibrils (100 μg/ml) were in 1X phosphate buffered saline, 0.01% Tween-80, 0.5% bovine serum albumin, pH 7.4, for 60 min. at 37° C. In some instances, ε-amino caproic add (ε-ACA) was also present at a concentration of 100 mM."}, "[2]": {"molecular_target": "tissue plasminogen activator (Homo sapiens, UniProt P00750)", "sequence (P00750 23-562 limits assumed)": "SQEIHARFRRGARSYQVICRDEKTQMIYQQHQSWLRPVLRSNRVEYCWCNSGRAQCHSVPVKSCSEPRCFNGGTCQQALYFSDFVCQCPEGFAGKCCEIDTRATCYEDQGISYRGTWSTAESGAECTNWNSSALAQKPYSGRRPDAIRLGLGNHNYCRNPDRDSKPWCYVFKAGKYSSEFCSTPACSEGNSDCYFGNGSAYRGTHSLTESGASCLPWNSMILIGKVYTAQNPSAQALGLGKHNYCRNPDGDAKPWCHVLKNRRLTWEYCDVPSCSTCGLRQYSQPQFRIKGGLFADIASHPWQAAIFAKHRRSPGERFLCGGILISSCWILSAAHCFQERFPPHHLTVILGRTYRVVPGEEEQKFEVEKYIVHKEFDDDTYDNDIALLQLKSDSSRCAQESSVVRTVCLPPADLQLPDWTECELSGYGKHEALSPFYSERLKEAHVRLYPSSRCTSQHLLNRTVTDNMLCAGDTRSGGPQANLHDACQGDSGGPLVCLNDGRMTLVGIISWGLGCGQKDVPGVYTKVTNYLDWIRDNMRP", "experiment": "Plasminogen activation stimulation assay (H-D-valyl-L-leucyl-L-lysine-p-nitroanilide), Example 3", "format": "biochemical", "conditions": "stimulators at 56 μg/ml", "protocol": "To further investigate this relationship, the ability of amyloid β peptide fibrils to stimulate tissue plasminogen activator was studied. For this purpose, plasminogen activation assays were carried out as described by Bennett, W. F. et al., J. Biol. Chem. 266:5191-5201 (1991)). Plasmin generation was monitored by measuring the absorbance change at 405 nm produced by hydrolysis of the substrate, H-D-valyl-L-leucyl-L-lysine-p-nitroanilide. Stimulators tested were present in the assay at a concentration of 56 μg/ml. The apparent first-order rate constants of plasminogen activation t-PA were measured for various stimulators. Rate constants were determined as described by Castro, M. J. M., et al., Analyt. Biochem. 226:225-231 (1995)) using fresh or aged amyloid β peptide fibrils or control proteins.\nThe twelve β1-28 peptide analogs were used for plasminogen activation and direct binding assays with the fibrinogen-binding proteins t-PA, plasmin, and thrombin, specifically labeled at their respective protease domain active sites as described above. For five of the peptide variants R5Q, […], D23Q, and K28Q, t-PA binding was reduced relative to its binding to both wt β1-28 and fibrin controls, implying that the t-PA binding “footprint” on the fibrils was rather large. […]"}, "[3]": {"experiment": "Fibril formation (electron microscopy, light scattering)", "format": "physicochemical", "conditions": "pH adjusted to theoretical pI", "protocol": "Fibril formation was accomplished by taking the peptides up in water. 10×calcium and magnesium free phosphate buffered saline (“PBS”) was added to give a 1×PBS solution (2.7 mM KCl, 1.2 mM KH2PO4, 138 mM NaCl, 8.1 mM Na2HPO4). Fibril formation was obtained by adjusting the pH to the theoretical pI of the β-amyloid peptides. The theoretical pI of β-amyloid peptide 1-42 was 4.9; the theoretical pI of β-amyloid peptide 1-28 was 5.6; the theoretical pI of β-amyloid peptide 1-28 (Dutch) was 6.2. The final concentration of peptide was 1 mg/ml. […] Fibrils were observed immediately or within no more than two days at room temperature. Small aliquots of suspended aggregated peptides were absorbed onto carbon-coated copper grids and stained with 2% (w/v) uranyl acetate. Samples were examined in a JEOL 1200EX electron microscope.\nSynthetic Amyloid Fibril Formation—β1-28 (Chiron Mimotopes Peptide Systems) and β1-40 (Bachem Bioscience) peptides were dissolved in water. Aggregation solution conditions were 1×PBS, 1 mg/ml β-peptide and the pH was adjusted to the theoretical pI of the peptides (5.6 for β1-28 and 4.9 for β1-40). Solutions were kept at room temperature. Fibril formation was confirmed by light scattering and transmission electron microscopy.\nIt had been possible that some of the charged→glutamine peptide variants might not form fibrils. […]"}, "tPA [4]": {"molecular_target": "T1, tPA", "experiment": "Plasminogen activation by t-PA, initial velocities under steady state conditions (S-2251, Lineweaver-Burk)", "format": "biochemical", "design": "purchased Genentech, Inc. Activase", "conditions": "unaggregated peptides"}},
  "data": [
    {"molecule": "β 1-40 Amyloid Fibrils: synthetic β1-40 amyloid peptide (Bachem Bioscience), aggregated to fibrils", "values": [
      {"measurement": "Kd of t-PA binding to fibrils", "setting": "tPA [1]; 125I-YPACK-modified t-PA", "result": "sub-nanomolar range"},
      {"measurement": "% tPA Bound", "setting": "tPA [1]; about 0.5 nM labeled tPA, 0.1 mg/ml fibrils or fibrin, 1 hour", "result": 62, "unit": "%"},
      {"measurement": "tPA binding to amyloid fibrils (qualitative)", "setting": "tPA [1]; radiolabeled tPA, tPA:fibrin binding as control", "result": "binds"}
    ]},
    {"molecule": "DAEFRHDSGYEVHHQKLVFFAEDVGSNQ [K28Q]", "values": [
      {"measurement": "t-PA binding relative to wt β1-28 and fibrin controls", "setting": "tPA [1]", "result": "reduced"},
      {"measurement": "stimulation of t-PA-mediated plasminogen activation", "setting": "[2]", "result": "profoundly decreased levels of stimulation"}
    ]},
    {"molecule": "DAEFQHDSGYEVHHQKLVFFAEDVGSNK [R5Q]", "values": [
      {"measurement": "t-PA binding relative to wt β1-28 and fibrin controls", "setting": "tPA [1]", "result": "reduced"}
    ]},
    {"molecule": "DAEFRHDSGYEVHHQQLVFFAEDVGSNK [K16Q]", "values": [
      {"measurement": "stimulation of t-PA-mediated plasminogen activation", "setting": "[2]", "result": "enhanced stimulation"}
    ]},
    {"molecule": "Growth Hormone Releasing Factor: control peptide, 29 amino acids", "values": [
      {"measurement": "fibril formation", "setting": "[3]", "result": "did not form fibrils"}
    ]},
    {"molecule": "Corticotropin Releasing Factor: control peptide, 41 amino acids", "values": [
      {"measurement": "fibril formation", "setting": "[3]", "result": "did not form fibrils"}
    ]},
    {"molecule": "DAEFRHDSGYEVHHQKLVFFAEQVGSNK [D23Q]", "values": [
      {"measurement": "t-PA binding relative to wt β1-28 and fibrin controls", "setting": "tPA [1]", "result": "reduced"}
    ]},
    {"molecule": "NCCCCCC(=O)O", "note": "[ε-aminocaproic acid, reference compound]", "values": [
      {"measurement": "effect on tPA binding to amyloid fibrils", "setting": "tPA [1]", "result": "capable of competing out amyloid binding"},
      {"measurement": "effect on tPA binding to amyloid fibrils", "setting": "tPA [1]; listed as ε-amino caproic acid", "result": "partially blocked"}
    ]},
    {"molecule": "Fibrinogen", "values": [
      {"measurement": "Km", "setting": "tPA [4]; Km of t-PA for plasminogen with the stimulator present", "result": 3.3, "unit": "µM"},
      {"measurement": "kcat", "setting": "tPA [4]; kcat of t-PA with the stimulator present", "result": 0.051, "unit": "s⁻¹"}
    ]}
  ]
}
